Reference: patent US20180037631A1 (Bristol-Myers Squibb, published 2018)
Values joined by “and” are separate entries in the source; they are usually repeats but may differ in a detail not shown here. Equal values may be shown once. Read-outs that look alike come from different tables or passages of the source.

Key:
[1] = biological target: T1, Recombinant human EGFR-Fc (aa 1-645 of the extracellular domain of human EGFR fused to human Fc) (human, UniProt P00533 25-645)
T1 construct: range 1-645; bought from R&D Systems; also called EGFR645-Fc; EGFR-Fc (HER-1); not shown: human Fc

[2] = biological target: T2, EGFR on the surface of human tumour cells (A431, H292) (human, UniProt P00533 25-1210)
T2 construct: whole, on cells; also called EGF receptor

[3] = biological target: T2, EGFR on the surface of human tumour …; remark: listed apart in the source
[4] = biological target: T2, EGFR on the surface of human tumour …; assay: cell-based or functional assay
[5] = biological target: T1, Recombinant human EGFR-Fc (aa 1-645 of …); assay: SPR Biacore
[6] = biological target: T1, Recombinant human EGFR-Fc (aa 1-645 of …); assay: BIAcore
[7] = biological target: T2, EGFR on the surface of human tumour …; assay: cell-based or functional assay; remark: listed apart in the source
[8] = biological target: T3, IGF-IR on human tumour cells (H292, MCF-7, RH41) (human, UniProt P08069 31-1367); assay: cell-based or functional assay
[9] = biological target: T2, EGFR on the surface of human tumour …; assay: cell-based or functional assay; remark: listed apart in the source
[10] = biological target: T2, EGFR on the surface of human tumour …; assay: cell-based or functional assay; remark: listed apart in the source
[11] = biological target: T2, EGFR on the surface of human tumour …; assay: cell-based or functional assay; remark: listed apart in the source
[12] = biological target: T3, IGF-IR on human tumour cells (H292, …); assay: cell-based or functional assay; remark: listed apart in the source
[13] = biological target: T2, EGFR on the surface of human tumour …; remark: listed apart in the source
[14] = biological target: T1, Recombinant human EGFR-Fc (aa 1-645 of …); remark: listed apart in the source
[15] = biological target: T1, Recombinant human EGFR-Fc (aa 1-645 of …); remark: listed apart in the source
[16] = biological target: T1, Recombinant human EGFR-Fc (aa 1-645 of …); remark: listed apart in the source
[17] = biological target: T4, IGF1R-Fc (extracellular domain of human IGF1R aa 1-932 fused to hinge and constant regions of human IgG1) (human, UniProt P08069 31-932)
T4 construct: range 1-932; made in house by transient transfection, purified on Protein A; also called IGF-IR-Fc; not shown: hinge and constant regions of human IgG1

[18] = biological target: T4, IGF1R-Fc (extracellular domain of human …); assay: SPR Biacore
[19] = biological target: T3, IGF-IR on human tumour cells (H292, …); assay: cell-based or functional assay; remark: listed apart in the source
[20] = biological target: T4, IGF1R-Fc (extracellular domain of human …); assay: SPR Biacore, IGF-IR-Fc captured on Protein A
[21] = biological target: T3, IGF-IR on human tumour cells (H292, …); assay: cell-based or functional assay; remark: listed apart in the source
[22] = biological target: T3, IGF-IR on human tumour cells (H292, …); assay: [125I]-IGF-I competition on MCF-7 cells
[23] = biological target: T3, IGF-IR on human tumour cells (H292, …); assay: IGF-I competition for IGF-IR binding

Binder | IC50 [2] [nM] | IC50 [3] [nM] | % inhibition of EGFR phosphorylation at 100 nM binder, cell-based assay [4] [%] | Kd [5] [nM] | Kd [6] [nM] | inhibition of EGF-stimulated EGFR phosphorylation (Y1068), H292 cells, ELISA, IC50 [7] [nM] | inhibition of IGF1-stimulated IGF1R phosphorylation (Y1131), H292 cells, ELISA, IC50 [8] [nM] | Inhibition of H292 Proliferation IC50 [9] [nM] | Inhibition of PERK IC50 [9] [nM] | Inhibition of pEGFR IC50 [9] [nM] | IC50, EGF-stimulated EGFR phosphorylation, H292 cells, ELISA [10] [nM] | A431 pEGFR IC50 (In-Cell Western) [11] [nM] | A431 pERK IC50 (In-Cell Western) [11] [nM] | H292 pEGFR IC50 (ELISA) [11] [nM] | H292 pIGF-IR IC50 (ELISA) [12] [nM] | other results
E1 EGFR 10Fn3-based binder, His-tagged monomer (designed binder) MGVSDVPRDLEVVAATPTSLLISWVAGAEDYQYYRITYGETGGNSPVQEFTVPHDLVTATISGLKPGVDYTITVYAVTDMMHVEYTEHPISINYRTEIDKPSQHHHHHH | 0.53 | 15.9 | 85.9 | 9.92 | 14.6 | 7 | > 3500 | 18 | 17 | 18 | 8 | 24 | 13 | 9 | > 3400 | Kd [1]: 9.92 nM and 13.2 nM; koff [1]: 0.00118 s⁻¹ and 0.00189 s⁻¹; kon [1]: 119000 M⁻¹ s⁻¹ and 143000 M⁻¹ s⁻¹; IC50 [13]: 14 nM
E3 EGFR 10Fn3-based binder, His-tagged monomer (designed binder) MGVSDVPRDLEVVAATPTSLLISWLPGKLRYQYYRITYGETGGNSPVQEFTVPHDLRTATISGLKPGVDYTITVYAVTNMMHVEYSEYPISINYRTEIDKPSQHHHHHH | 0.87 | 4.75 | 87.5 | 3.4 | 0.72 |  |  | 26 | 97 | 11 | 21 | 15 | 11 | 22 | > 7000 | Kd [14]: 1.4 nM; Kd [15]: 3.4 nM; IC50, EGF-stimulated EGFR phosphorylation, A431 cells, In Cell Western [10]: 14 nM; koff [16]: 0.000398 s⁻¹; kon [16]: 283000 M⁻¹ s⁻¹
I1 IGF-IR 10Fn3-based binder, His-tagged monomer (designed binder) MGVSDVPRDLEVVAATPTSLLISWSARLKVARYYRITYGETGGNSPVQEFTVPKNVYTATISGLKPGVDYTITVYAVTRFRDYQPISINYRTEIDKPSQHHHHHH |  |  |  |  |  | > 6210 | 18 |  |  |  |  |  |  |  | 0.2 | Kd [17]: 0.11 nM; koff [17]: 0.000434 s⁻¹; kon [17]: 3.84e+06 M⁻¹ s⁻¹; Kd [18]: 0.11 nM; Inhibition of RH41 Proliferation IC50 [19]: 28 nM; Inhibition of pIGFR IC50 [19]: 0.2 nM; Kd [20]: 0.11 nM; IC50, IGF1-stimulated IGFR phosphorylation, H292 cells, ELISA [21]: 0.4 nM; IC50 [22]: 8 nM; IC50 [23]: 8 nM
